Results reported in US20230131056A1 (Stanford University, published 2023).
Changes are numbered by the printed parent chain. Read-outs that look alike come from different tables or passages of the source. Values belong to the binder of their own block, whether it stands above or below them.

How the values were obtained:
PD-L2-Fc (human PD-L2) [1] = target: T1, PD-L2-Fc (human PD-L2) (human, UniProt Q9BQ51 20-220, limits assumed); test: yeast surface display binding assay for PDL2 (summary list)
T1 construct: not shown: Fc portion
T1 sequence (looked up): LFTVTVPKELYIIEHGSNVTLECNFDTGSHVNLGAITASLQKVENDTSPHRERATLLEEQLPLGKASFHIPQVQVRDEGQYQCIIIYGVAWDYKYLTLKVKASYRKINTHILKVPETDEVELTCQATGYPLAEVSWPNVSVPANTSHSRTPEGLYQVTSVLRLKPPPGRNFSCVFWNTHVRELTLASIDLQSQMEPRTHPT

PD-L2-Fc (human PD-L2) [2] = target: T1, PD-L2-Fc (human PD-L2); test: yeast surface display, flow cytometry titration with soluble PDL2
PD-L2-Fc (human PD-L2) [3] = target: T1, PD-L2-Fc (human PD-L2); test: yeast surface display, flow cytometry titration with soluble PDL2 (cell binding A.U. against PDL2 concentration)
PDL1-Fc (human PD-L1) [4] = target: T2, PDL1-Fc (human PD-L1) (human, UniProt Q9NZQ7 19-238, limits assumed); test: yeast surface display binding assay for PDL1 (summary list)
T2 construct: not shown: Fc portion

PDL1-Fc (human PD-L1) [5] = target: T2, PDL1-Fc (human PD-L1); test: yeast surface display, flow cytometry titration with soluble PDL1
PD-L2-Fc (human PD-L2) [6] = target: T1, PD-L2-Fc (human PD-L2); test: yeast surface display, flow cytometry titration with soluble PDL2; remark: listed apart in the source
PDL1-Fc (human PD-L1) [7] = target: T2, PDL1-Fc (human PD-L1); test: yeast surface display, flow cytometry titration with soluble PDL1 (cell binding A.U. against PDL1 concentration)
PD-L2-Fc (human PD-L2) [8] = target: T1, PD-L2-Fc (human PD-L2); test: yeast surface display, flow cytometry titration with soluble PDL2 (cell binding A.U. against PDL2 concentration); remark: listed apart in the source
PDL1-Fc (human PD-L1) [9] = target: T2, PDL1-Fc (human PD-L1); test: yeast surface display, flow cytometry titration with soluble PDL1; remark: listed apart in the source
PD-L2-Fc (human PD-L2) [10] = target: T1, PD-L2-Fc (human PD-L2); test: yeast surface display, flow cytometry titration with soluble PDL2; remark: listed apart in the source
PDL1-Fc (human PD-L1) [11] = target: T2, PDL1-Fc (human PD-L1); test: yeast surface display, flow cytometry titration with soluble PDL1 (cell binding A.U. against PDL1 concentration); remark: listed apart in the source
PD-L2-Fc (human PD-L2) [12] = target: T1, PD-L2-Fc (human PD-L2); test: yeast surface display, flow cytometry titration with soluble PDL2 (cell binding A.U. against PDL2 concentration); remark: listed apart in the source
PDL1-Fc (human PD-L1) [13] = target: T2, PDL1-Fc (human PD-L1); test: yeast surface display, flow cytometry titration with soluble PDL1 (cell binding A.U. against PDL1 concentration); remark: listed apart in the source
PD-L2-Fc (human PD-L2) [14] = target: T1, PD-L2-Fc (human PD-L2); test: yeast surface display, flow cytometry titration with soluble PDL2 (cell binding A.U. against PDL2 concentration); remark: listed apart in the source
PD-L2-Fc (human PD-L2) [15] = target: T1, PD-L2-Fc (human PD-L2); test: yeast surface display, flow cytometry titration with soluble PDL2; remark: listed apart in the source
PDL1-Fc (human PD-L1) [16] = target: T2, PDL1-Fc (human PD-L1); test: yeast surface display, flow cytometry titration with soluble PDL1 (cell binding A.U. against PDL1 concentration); remark: listed apart in the source
PD-L2-Fc (human PD-L2) [17] = target: T1, PD-L2-Fc (human PD-L2); test: yeast surface display, flow cytometry titration with soluble PDL2 (cell binding A.U. against PDL2 concentration); remark: listed apart in the source
PD-L2-Fc (human PD-L2) [18] = target: T1, PD-L2-Fc (human PD-L2); test: yeast surface display, flow cytometry titration with soluble PDL2; remark: listed apart in the source
PDL1-Fc (human PD-L1) [19] = target: T2, PDL1-Fc (human PD-L1); test: yeast surface display, flow cytometry titration with soluble PDL1 (cell binding A.U. against PDL1 concentration); remark: listed apart in the source
PD-L2-Fc (human PD-L2) [20] = target: T1, PD-L2-Fc (human PD-L2); test: yeast surface display, flow cytometry titration with soluble PDL2 (cell binding A.U. against PDL2 concentration); remark: listed apart in the source

T2 sequence (Q9NZQ7 19-238 limits assumed): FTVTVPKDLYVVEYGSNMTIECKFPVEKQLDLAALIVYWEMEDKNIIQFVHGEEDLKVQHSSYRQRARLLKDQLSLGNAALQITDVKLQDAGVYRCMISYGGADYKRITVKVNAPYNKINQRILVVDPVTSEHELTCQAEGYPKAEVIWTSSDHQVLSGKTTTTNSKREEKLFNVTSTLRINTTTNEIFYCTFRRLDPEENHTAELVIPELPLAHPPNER

Kd (PD-L2-Fc (human PD-L2) [1]): 1.1 nM
EC50 (read off the curve) (PD-L2-Fc (human PD-L2) [2]): ~1 nM
Kd (PD-L2-Fc (human PD-L2) [3]): 1.1 nM
B1: Clone #3 (128-6 mutations, yeast displayed sPD-1 mutant) (receptor)
chain: LDSPDRPWNPPTFSPALLVVTEGDNATFTCSFSNTSESFVLNWYRMSPSNQTDKLAAFPEDRGQLGQDCRFRVTQLPNGRDFHMSVVRARRNDSGTYLCSAIVLAPKIQIKESLRVELRVTERRAEVPTAHPSPSPRPAGQFQTLV

Kd (PDL1-Fc (human PD-L1) [4]): 0.8 nM
Kd (PD-L2-Fc (human PD-L2) [1]): 4.1 nM
EC50 (read off the curve) (PDL1-Fc (human PD-L1) [5]): ~0.8 nM
EC50 (read off the curve) (PD-L2-Fc (human PD-L2) [6]): ~4 nM
Kd (PDL1-Fc (human PD-L1) [7]): 0.8 nM
Kd (PD-L2-Fc (human PD-L2) [8]): 4.1 nM
B2: Clone #5 (62-3 mutations, yeast displayed sPD-1 mutant) (receptor)
chain: B1 chain with G63S, L65P, V116A

Kd (PDL1-Fc (human PD-L1) [4]): 0.44 nM
Kd (PD-L2-Fc (human PD-L2) [1]): 2.6 nM
EC50 (read off the curve) (PDL1-Fc (human PD-L1) [9]): ~0.4 nM
EC50 (read off the curve) (PD-L2-Fc (human PD-L2) [10]): ~3 nM
Kd (PDL1-Fc (human PD-L1) [11]): 0.44 nM
Kd (PD-L2-Fc (human PD-L2) [12]): 2.6 nM
B3: original mutant sPD-1 (7 mutations, yeast displayed) (receptor)
chain: B1 chain with S38G
notes: also called initial Mutant PD-1 clone; 2-7 mutations

Kd (PDL1-Fc (human PD-L1) [4]): 0.12 nM
Kd (PD-L2-Fc (human PD-L2) [1]): 0.11 nM
Kd (PDL1-Fc (human PD-L1) [13]): 0.12 nM
Kd (PD-L2-Fc (human PD-L2) [14]): 0.11 nM
B4: Clone #2 (120-5 mutations, yeast displayed sPD-1 mutant) (receptor)
chain: B1 chain with L65P

Kd (PDL1-Fc (human PD-L1) [4]): 0.08 nM
Kd (PD-L2-Fc (human PD-L2) [1]): 0.87 nM
EC50 (read off the curve) (PD-L2-Fc (human PD-L2) [15]): ~0.9 nM
Kd (PDL1-Fc (human PD-L1) [16]): 0.08 nM
Kd (PD-L2-Fc (human PD-L2) [17]): 0.87 nM
B5: Clone #4 (100-4 mutations, yeast displayed sPD-1 mutant) (receptor)
chain: B1 chain with G63S, L65P

Kd (PDL1-Fc (human PD-L1) [4]): 0.03 nM
Kd (PD-L2-Fc (human PD-L2) [1]): 1.4 nM
EC50 (read off the curve) (PD-L2-Fc (human PD-L2) [18]): ~1 nM
Kd (PDL1-Fc (human PD-L1) [19]): 0.03 nM
Kd (PD-L2-Fc (human PD-L2) [20]): 1.4 nM
B6: Clone #1 (121-5 mutations, yeast displayed sPD-1 mutant) (receptor)
chain: B1 chain with G63S
